Reference: article doi:10.1101/2020.11.15.382044

Key:
[1] = biological target: SARS-CoV-2 D614G mutant S trimer (design Spike_ΔCter_ΔFurin_2P_T4_His with D614G) (SARS-CoV-2 | bacteriophage T4) (UniProt P0DTC2); assay: negative-stain electron microscopy
[2] = biological target: SARS-CoV-2 Spike trimer (Wuhan), design Spike_ΔCter_ΔFurin_2P_T4_His (SARS-CoV-2 | bacteriophage T4) (UniProt P0DTC2); assay: SEC
[3] = biological target: SARS-CoV-2 Spike trimer (Wuhan), design Spike_ΔCter_ΔFurin_2P_T4_His (SARS-CoV-2 | bacteriophage T4) (UniProt P0DTC2); assay: negative-stain electron microscopy

| Substance | stoichiometry N [1] | stoichiometry N [2] | stoichiometry N [3] |
| --- | --- | --- | --- |
| SARS-CoV-2 D614G mutant S trimer (design Spike_ΔCter_ΔFurin_2P_T4_His with D614G) (from UniProt P0DTC2 14-1213) (complex) | 3 | – | – |
| SARS-CoV-2 Spike trimer (Wuhan), design Spike_ΔCter_ΔFurin_2P_T4_His (from UniProt P0DTC2 14-1213) (complex) | – | 3 | 3 |
